Measured values reported in patent publication US20240218064A1 (AstraZeneca / MedImmune, published 2024).
One block for each binder: values may come before it.

Columns and labels:
[1] = molecular target: cynomolgus monkey LOX-1 (cynomolgus monkey, UniProt A0A2K5VQ73 79-291); test: BIAcore (SPR)
[2] = molecular target: T1, human LOX-1 (lectin-like oxidized low density lipoprotein receptor-1) (human, UniProt P78380 61-273); test: BIAcore (SPR); Fab, not full mAb; LOX-1
[3] = molecular target: T2, soluble LOX-1 (sLOX-1) in sera of participants with T2DM (human, UniProt P78380 89-273, limits assumed); test: sLOX-1 in sera of participants with T2DM; the paragraph names BIAcore, the method for this value is not made clear; full mAb; sLOX-1 in sera of participants with T2DM
T2 construct: domain: cleaved soluble domain of LOX-1; Endogenous protein in patient serum; also called soluble lectin-like oxidized low-density lipoprotein receptor 1

[4] = molecular target: T1, human LOX-1 (lectin-like oxidized low …); test: in vitro inhibition of ligand binding to human LOX-1; competitor ligand CRP; ligand CRP
Source text: (§1) FIG. 3. MEDI6570 inhibition of ligand binding. AGE-BSA=advanced glycation end products-bovine serum albumin; CRP=c-reactive protein; IgG-immunoglobulin G; OxLDL=oxidized low-density lipoprotein. Antibodies were titrated across a 384 well dilution plate in assay buffer (PBS/0.1% BSA/0.01% Tween 20) over 24 points in duplicate.
(§2) The ability of MEDI6570 to inhibit binding of the LOX-1 ligands oxLDL, AGE (advanced glycation end products, in this case glycated bovine serum albumin, BSA) and CRP was determined using in vitro assays. AGEs are known ligands of LOX-1. They commonly occur in patients that have poorly regulated levels of blood glucose, which is a risk factor for cardiovascular disease.

[5] = molecular target: T1, human LOX-1 (lectin-like oxidized low …); test: in vitro inhibition of ligand binding to human LOX-1; competitor ligand AGE-BSA; ligand AGE-BSA
Source text: as §1, §2

[6] = molecular target: T1, human LOX-1 (lectin-like oxidized low …); test: in vitro inhibition of ligand binding to human LOX-1; competitor ligand oxLDL; ligand oxLDL
Source text: as §1, §2

- Kd [1]: 116 pM
- Kd [2]: 56 pM
B1: MEDI6570 Fab (Fab, V domains shown)
VH: QVQLVQSGAEVKKPGASVKVSCKVSGYTLTELSMHWVRQAPGKGLEWMGGFDPEDFKYHTHQKFQGRVTMTEDTSTDTAYMELSSLRSEDTAVYYCALVWGTQGKGVRGWDYYYGMDVWGQGTTVTVSS
VL: QSVVTQPPSVSGAPGQRVTISCTGSSSNIGAGYDVHWYQQLPGTAPKLLIYGNSNRPSGVPDRFSGSKSGTSASLAITGLQAEDEADYYCQSYDSSLSGWVFGGGTKLTVL
notes: also called Fab of the antibody MEDI6570

- Kd [3]: ~173 pM
- IC50 [4]: 4800 pM
- IC50 [5]: 540 pM
- IC50 [6]: 340 pM
B2: MEDI6570 (antibody, human IgG1, lambda, V domains shown)
VH: B1 VH
VL: QSVVTQPPSVSGAPGQRVTISCTGSSSNIGAGYDVHWYQQLPGTAPKLLIYGNSNRPSGVPDRFSGSKSGTSASLAITGLQAEDEADYYCQSYDSSLSGWVFGGGTKLTVLG
notes: Fully human IgG1-lambda; also called LX5140110-IgG1-TM
